Patent publication US20240067758A1 (UCB, published 2024)
Several values for one entry are separate records, joined by “and”; a condition that tells them apart may be missing. Equal values may be shown once. Values belong to the binder of their own block, whether it stands above or below them.

Legend:
Human IL22 [1] = biological target: T1, Human IL22 (human, UniProt Q9GZX6 34-179); assay: SPR (Biacore); human IL22
T1 construct: IL22 of the Biacore and cell assays
T1 sequence: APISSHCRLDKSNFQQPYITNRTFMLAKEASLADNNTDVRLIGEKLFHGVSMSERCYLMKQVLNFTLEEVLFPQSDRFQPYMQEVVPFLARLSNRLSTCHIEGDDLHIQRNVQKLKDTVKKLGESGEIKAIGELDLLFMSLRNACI

Human IL22 [2] = biological target: T1, Human IL22; assay: SPR Biacore T200; mean KD
Procedure: BIA (Biomolecular Interaction Analysis) was performed using T200 (GE Healthcare). Affinipure IgG-F(ab′)₂ Fragment goat anti-human IgG, F(ab′)₂ fragment specific (Jackson ImmunoResearch) was immobilized on a CM5 Sensor Chip via amine coupling chemistry to a capture level of ˜5000 response units (RUs). HBS-EP+buffer (10 mM HEPES pH 7.4, 0.15 M NaCl, 3 mM EDTA, 0.05% Surfactant P20, GE Healthcare) was used as the running buffer with a flow rate of 10 μL/min.
The surface was generated by 2×10 μL injections of 50 mM HCl, interspersed by a 10 μL injection of 5 mM NaOH at flowrate of 10 μL/min. Background subtraction binding curves were analyzed using the T200 evaluation software (version 3.0) following standard procedures. Kinetic parameters were determined from the fitting algorithm.

Human IL22 [3] = biological target: T1, Human IL22; assay: SPR (Biacore); Fab variant, human IL22
Human IL22 [4] = biological target: T1, Human IL22; assay: SPR Biacore 8K; Fab captured on anti-human F(ab')2, human IL22 titrated 617 pM-50 nM; single experiment
Procedure: The assay was run on Biacore 8K instrument (GE Healthcare) and BIA (Biomolecular Interaction Analysis) was performed using Biacore 8000 evaluation software Affinipure Goat anti-human IgG-F(ab′)2 fragment specific (Jackson ImmunoResearch) was immobilized on a CM5 Sensor Chip via amine coupling chemistry to a capture level of ˜5000 response units (RUs). HBS-EP+ buffer (10 mM HEPES pH 7.4, 0.15 M NaCl, 3 mM EDTA, 0.05% Surfactant P20, GE Healthcare) was used as the running buffer with a flow rate of 10 μL/min.
The surface was generated by 2×10 μL injections of 50 mM HCl, interspersed by a 5 μL injection of 5 mM NaOH at flowrate of 10 μL/min. Background subtraction binding curves were analyzed using the Insight evaluation software following standard procedures. Kinetic parameters were determined from the fitting algorithm.

Human IL22 [5] = biological target: T1, Human IL22; assay: SPR
Human IL22 [6] = biological target: T1, Human IL22; assay: cell-based or functional assay
Human IL22 [7] = biological target: T1, Human IL22; assay: cell-based or functional assay; remark: listed apart in the source
Human IL13 [8] = biological target: T2, Human IL13 (human, UniProt P35225 35-146, limits assumed); assay: cell-based or functional assay
Human IL13 [9] = biological target: T2, Human IL13; assay: cell-based or functional assay; remark: listed apart in the source
Human IL13 [10] = biological target: T2, Human IL13; assay: cell-based or functional assay; remark: listed apart in the source
Human IL22 [11] = biological target: T1, Human IL22; assay: cell-based or functional assay; remark: listed apart in the source
Human IL22 [12] = biological target: T1, Human IL22; assay: cell-based or functional assay; remark: listed apart in the source
Human IL13 [13] = biological target: T2, Human IL13; assay: cell-based or functional assay; remark: listed apart in the source
Human IL13 [14] = biological target: T2, Human IL13; assay: cell-based or functional assay; remark: listed apart in the source
Human IL22 [15] = biological target: T1, Human IL22; assay: SPR (Biacore); human IL22; remark: listed apart in the source

B1: 11041 (parental) (Fab, V domains shown)
VH: QSVEESGGRLVTPGTPLTLTCTVSGFSLSSYAMIWVRQAPGEGLEWIGIIDIDGSTYYASWAKGRFTISRTSTTVDLKITSPTTGDTATYFCARDRFVGVDIFDPWGPGTLVTVSS
VL: AVVLTQTASPVSAPVGGTVTIKCQASEDIYTNLAWYQQKPGQPPKLLIYWASTLASGVPSRFKGSGSGTEFTLTISDLECADAATYYCQACVYGNSADSRYTFGGGTEVVVK
Kd (Human IL22 [1]): 0.569 nM

B3: 11041gL13gH14 Fab (Fab, V domains shown)
VH: EVQLVESGGGLVQPGGSLRLSCAVSGFSLSSYAMIWVRQAPGKGLEWIGIIDIEGSTYYASWAKGRFTISRDNSKNTVYLQMNSLRAEDTAVYYCARDRFVGVDIFDPWGQGTLVTVSS
VL: AVQLTQSPSSLSASVGDRVTITCQASEDIYTNLAWYQQKPGKAPKLLIYWASTLASGVPSRFSGSGSGTDFTLTISSLQPEDFATYYCQASVYGNAADSRYTFGGGTKVEIKR
notes: also called 11041gL6 C91S S96A gH5 D54E
Kd (Human IL22 [3]): 0.0125 nM | Kd (Human IL22 [4]): 0.0125 nM | kon (Human IL22 [4]): 1.01e+06 M⁻¹ s⁻¹

B4: 11041gL1 C91V gH1 (Fab, V domains shown)
VH: EVQLVESGGGLVQPGGSLRLSCAVSGFSLSSYAMIWVRQAPGKGLEWIGIIDIDGSTYYASWAKGRFTISRDSSKNTVYLQMNSLRAEDTAVYYCARDRFVGVDIFDPWGQGTLVTVSS
VL: AVVLTQSPSSLSASVGDRVTITCQASEDIYTNLAWYQQKPGKAPKLLIYWASTLASGVPSRFSGSGSGTDFTLTISSLQPEDFATYYCQAVVYGNSADSRYTFGGGTKVEIK
notes: V-regions only; also called 11041gL3gH1
fold increase in binding affinity against 11041gL1gH1 (Human IL22 [5]): 15 fold | Kd (Human IL22 [3]): 0.0419 nM

B5: 11041gL1 C91S gH1 (Fab, V domains shown)
VH: EVQLVESGGGLVQPGGSLRLSCAVSGFSLSSYAMIWVRQAPGKGLEWIGIIDIDGSTYYASWAKGRFTISRDSSKNTVYLQMNSLRAEDTAVYYCARDRFVGVDIFDPWGQGTLVTVSS
VL: AVVLTQSPSSLSASVGDRVTITCQASEDIYTNLAWYQQKPGKAPKLLIYWASTLASGVPSRFSGSGSGTDFTLTISSLQPEDFATYYCQASVYGNSADSRYTFGGGTKVEIK
notes: V-regions only; also called 11041gL2gH1
fold increase in binding affinity against 11041gL1gH1 (Human IL22 [5]): 50 fold | Kd (Human IL22 [3]): 0.0124 nM

Results, then the binder that gave them:

Kd (Human IL22 [2]): < 0.1 nM
B2: TrYbe molecule with 11070 gL7gH16 IL22 domain (other)
VL: DIQMTQSPSSVSASVGDRVTITCKASKTISKYLAWYQQKPGKANKLLIYSGSTLQSGVPSRFSGSGSGTDFTLTISSLQPEDFATYYCQQHNEYPLTFGQGTKLEIK
VH: EVQLQESGPGLVKPSQTLSLTCTVSGFSLTSYSVHWVRQHPGKGLEWIGRMWSDGDTSYNTAFTSRLTISRDTSKNQVSLKLSSVTAADTAVYYCARSLDFYYDTTLAFWGQGTTVTVSS

IC50 (M) Geomean; IL22-induced IL-10 release, COLO205 cells; PB8919 (N = 2) (Human IL22 [6]): 5.73e-11 M | IC50 (M) Geomean; IL22-induced IL-10 release, COLO205 cells; PB8842 (N = 2) (Human IL22 [7]): 7.13e-11 M | IC50 (pM) Geomean, N = 2; STAT-6 reporter assay, HEK-Blue IL-4/IL13 cells; PB8842 (Human IL13 [8]): 4.9 pM | IC50 (pM), concatenated IC50 values; STAT-6 reporter assay; PB8842 (Human IL13 [8]): 4.6 pM and 5.2 pM | IC50 (pM) Geomean, N = 2; STAT-6 reporter assay, HEK-Blue IL-4/IL13 cells; PB8919 (Human IL13 [9]): 2.3 pM | IC50 (pM), concatenated IC50 values; STAT-6 reporter assay; PB8919 (Human IL13 [9]): 2 pM and 2.7 pM | IC50 (read off the curve), inhibition of eotaxin-3 secretion, primary human keratinocytes stimulated with IL-13 and IL-22 at 100 ng/ml (Human IL13 [10]): ~0.8 nM
B6: IL13H/IL22K knob in hole bispecific (bispecific antibody, human IgG4 S228P, kappa)
heavy 1: not shown
light 1: AVQLTQSPSSLSASVGDRVTITCQASEDIYTNLAWYQQKPGKAPKLLIYWASTLASGVPSRFSGSGSGTDFTLTISSLQPEDFATYYCQASVYGNAADSRYTFGGGTKVEIKRTVAAPSVFIFPPSDEQLKSGTASVVCLLNNFYPREAKVQWKVDNALQSGNSQESVTEQDSKDSTYSLSSTLTLSKADYEKHKVYACEVTHQGLSSPVTKSFNRGEC
heavy 2: EVQLVQSGAEVKKPGSSVKVSCKASGYSFTSYYIHWVRQAPGQGLEWMGRIGPGSGDINYNEKFKGRATFTVDKSTSTAYMELSSLRSEDTAVYYCARFHYDGADWGQGTLVTVSSASTKGPSVFPLAPCSRSTSESTAALGCLVKDYFPEPVTVSWNSGALTSGVHTFPAVLQSSGLYSLSSVVTVPSSSLGTKTYTCNVDHKPSNTKVDKRVESKYGPPCPPCPAPEFLGGPSVFLFPPKPKDTLMISRTPEVTCVVVDVSQEDPEVQFNWYVDGVEVHNAKTKPREEQFNSTYRVVSVLTVLHQDWLNGKEYKCKVSNKGLPSSIEKTISKAKGQPREPQVYTLPPSQEEMTKNQVSLSCAVKGFYPSDIAVEWESNGQPENNYKTTPPVLDSDGSFFLVSRLTVDKSRWQEGNVFSCSVMHEALHNHYTQKSLSLSLGK
light 2: DIQMTQSPSSLSASVGDRVTITCKASQNINENLDWYQQKPGKAPKLLIYYTDILQTGIPSRFSGSGSGTDYTLTISSLQPEDFATYYCYQYYSGYTFGQGTKLEIKRTVAAPSVFIFPPSDEQLKSGTASVVCLLNNFYPREAKVQWKVDNALQSGNSQESVTEQDSKDSTYSLSSTLTLSKADYEKHKVYACEVTHQGLSSPVTKSFNRGEC

IC50 (M) Geomean; IL22-induced IL-10 release, COLO205 cells; PB8920 (N = 2) (Human IL22 [11]): 6.38e-11 M | IC50 (M) Geomean; IL22-induced IL-10 release, COLO205 cells; PB8841 (N = 2) (Human IL22 [12]): 6.59e-11 M | IC50 (pM) Geomean, N = 2; STAT-6 reporter assay, HEK-Blue IL-4/IL13 cells; PB8920 (Human IL13 [13]): 2.9 pM | IC50 (pM), concatenated IC50 values; STAT-6 reporter assay; PB8920 (Human IL13 [13]): 2.1 pM and 4 pM | IC50 (pM) Geomean, N = 2; STAT-6 reporter assay, HEK-Blue IL-4/IL13 cells; PB8841 (Human IL13 [14]): 3.4 pM | IC50 (read off the curve), inhibition of eotaxin-3 secretion, primary human keratinocytes stimulated with IL-13 and IL-22 at 100 ng/ml (Human IL13 [10]): ~5 nM
B7: IL13K/IL22H knob in hole bispecific (bispecific antibody, human IgG4 S228P, kappa)
heavy 1: not shown
light 1: DIQMTQSPSSLSASVGDRVTITCKASQNINENLDWYQQKPGKAPKLLIYYTDILQTGIPSRFSGSGSGTDYTLTISSLQPEDFATYYCYQYYSGYTFGQGTKLEIKRTVAAPSVFIFPPSDEQLKSGTASVVCLLNNFYPREAKVQWKVDNALQSGNSQESVTEQDSKDSTYSLSSTLTLSKADYEKHKVYACEVTHQGLSSPVTKSFNRGEC
heavy 2: EVQLVESGGGLVQPGGSLRLSCAVSGFSLSSYAMIWVRQAPGKGLEWIGIIDIEGSTYYASWAKGRFTISRDNSKNTVYLQMNSLRAEDTAVYYCARDRFVGVDIFDPWGQGTLVTVSSASTKGPSVFPLAPCSRSTSESTAALGCLVKDYFPEPVTVSWNSGALTSGVHTFPAVLQSSGLYSLSSVVTVPSSSLGTKTYTCNVDHKPSNTKVDKRVESKYGPPCPPCPAPEFLGGPSVFLFPPKPKDTLMISRTPEVTCVVVDVSQEDPEVQFNWYVDGVEVHNAKTKPREEQFNSTYRVVSVLTVLHQDWLNGKEYKCKVSNKGLPSSIEKTISKAKGQPREPQVYTLPPSQEEMTKNQVSLSCAVKGFYPSDIAVEWESNGQPENNYKTTPPVLDSDGSFFLVSRLTVDKSRWQEGNVFSCSVMHEALHNHYTQKSLSLSLGK
light 2: AVQLTQSPSSLSASVGDRVTITCQASEDIYTNLAWYQQKPGKAPKLLIYWASTLASGVPSRFSGSGSGTDFTLTISSLQPEDFATYYCQASVYGNAADSRYTFGGGTKVEIKRTVAAPSVFIFPPSDEQLKSGTASVVCLLNNFYPREAKVQWKVDNALQSGNSQESVTEQDSKDSTYSLSSTLTLSKADYEKHKVYACEVTHQGLSSPVTKSFNRGEC

Kd (Human IL22 [15]): 0.049 nM
B8: 11070 (Fab, V domains shown)
VH: EVQLQESGPGLVQPSQTLSPTCTVSGFSLTSYSVHWVRQHSGKSLEWMGRMWSDGDTSYNSAFTSRLSITRDTSKSQVFLKMNSLQTEDTGTYYCARSLDFYYDTTLAFWGPGTTVTVSS
VL: DIVMTQTPSNLAASPGESVSINCKASKTISKYLAWYQQKPGKANKLLIYSGSTLQSGTPSRFSGSGSSTDFTLTIRNLEPEDFGLYYCQQHNEYPLTFGSGTKLEIK
